This note sets out measurements from patent US20090042209A1 (NOX TECHNOLOGIES, published 2009).

In the assay the target is T1, albumin (serum) (human, UniProt P02768 25-609).
T1 construct: Present in the serum sample on the 2-D blot; also called unreactive albumin
The assay is described as follows: 2-D gel electrophoresis immunoblot of pooled cancer sera, scFv with anti-S alkaline phosphatase detection. The text has this:
FIG. 1 provides the results of analytical 2-D gel electrophoresis of ECTO-NOX enriched serum proteins from a preparation of sera pooled from cancer patients (breast, ovarian, lung and colon) concentrated by nickel agarose precipitation, followed by immunoblots analysis. Separation in the first dimension was by isoelectric focusing and in the second dimension by SDS-PAGE (using ampholytes over the pH range of 3 to 10 and 10% polyacrylamide gel). For interpretative purposes, the gel is divided into quadrants I-IV with unreactive albumin (albumin) at the center. Detection was with recombinant anti-tNOX single chain variable region (scFv) antibody (MAB 12.1 scFv) carrying an S-tag followed by alkaline phosphatase-liked anti S (Novagen cat. # 69598-3 or equivalent product) with Western Blue NBT substrate (Promega, Madison, Wis; Cat. No. S3841 or equivalent product). Reactive proteins appear reddish blue.

T1 sequence (P02768 25-609 limits assumed): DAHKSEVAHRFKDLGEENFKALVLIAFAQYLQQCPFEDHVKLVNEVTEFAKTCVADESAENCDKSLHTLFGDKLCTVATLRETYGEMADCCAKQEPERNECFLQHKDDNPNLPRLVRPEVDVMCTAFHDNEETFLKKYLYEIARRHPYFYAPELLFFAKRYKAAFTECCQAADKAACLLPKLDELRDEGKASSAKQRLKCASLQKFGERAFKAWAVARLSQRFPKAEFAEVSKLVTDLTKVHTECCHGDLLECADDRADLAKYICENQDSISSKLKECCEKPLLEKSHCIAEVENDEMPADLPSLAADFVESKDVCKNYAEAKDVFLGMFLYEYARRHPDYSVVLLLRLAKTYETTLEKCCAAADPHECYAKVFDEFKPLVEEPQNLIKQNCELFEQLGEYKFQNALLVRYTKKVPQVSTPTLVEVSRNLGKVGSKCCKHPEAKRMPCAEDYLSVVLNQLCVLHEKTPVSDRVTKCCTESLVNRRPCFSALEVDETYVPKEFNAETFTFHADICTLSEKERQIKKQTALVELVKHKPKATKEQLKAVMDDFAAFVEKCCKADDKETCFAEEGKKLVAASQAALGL

B1: recombinant anti-tNOX single chain variable region (scFv) antibody (MAB 12.1 scFv) carrying an S-tag (scFv)
scFv: EVKLQESGTEVVKPGASVKLSCKASGYIFTSYDIDWVRQTPEQGLEWIGWIFPGEGSTEYNEKFKGRATLSVDKSSSTAYMELTRLTSEDSAVYFCARGDYYRRYFDLWGQGTTVTVSSGGGGSGGGGSGGGGSENVLTQSPAIMSASPGERVTMTCSASSSIRYIYWYQQKPGSSPRLLIYDTSNVAPGVPFRFSGSGSGTSYSLTINRMEAEDAATYYCQEWSGYPYTFGGGTKLELKAKETAAAKFERQHMDS
notes: Expressed in E. coli from pET11-ScFv(S) and renatured from inclusion bodies; also called ScFv(S); NTI ScFv MAB 12.1
For the molecule B1, the binding result is on record as “no binding”.
